# Source: a protein production outcome set (Wang et al. 2014)
# Experiment: label from the status in PepcDB records
row,Sequence,protein production
1,MKIGVIQASTRTDLNQLLFEAVKQAAGNQHEIVNFGVFPQETENYSYVEVAIMISLLIETGAIDFMVSGCSSGQGMMMACNSLPGLQAGFIQTPQDAFLFGRINNGNVASLSLGLNFGWAGELNLQYALNELFHGEFGIGYPPEVAERKREEAQLLLTLNDITKKSFLEIIDQLDKALLFKILKRKDLTAYLFDYGSNSLLLERLQFFRN,failed
2,MKIIAFYLPQFHQIKENDRWWGKGFTEWTNTKSAQPLFSGHYQPREPYQDFYYDLTTPSVRKWQAEIAKAYGIYGFCYYHYWFKGKRLLETPFNEVLKMKEPDFPFCLSWANEPWTKSWDGLDKHILMPQDYGDISDWKEHFDYLLQAFQDERYIYIDDKPLFIIYRPGHIPDCEKMLNYWNALARANGLKGIYFAETLNSFPLPNINGFDASIQFEPFYTIAHDSSSDINKVIYDSDMQLNVWDYDKVWMYILQRSLPKKKTFPGAFVDWDNTARRKNANSSIFVGSTPEKFTIYLSKQIHRTYSFYNSEFLFINAWNEWAEGTYLEPDKKYGFSYLEGVKNAIDRGMKAYKKDESFLEHHHHHH,not failed
3,MKIIGIIQARTGSKRLKNKVLLKLGDRCILEILLERLKKSKKLDDIIVATTIKKEDNAIVELCNSLGVNVFRGSEKDVLDRFYNASKFYSGDVIVRITGDNPLTSIELIDKQVEYLLKNNFDYVSTKNIILGLSSEVFTFDALEKAWKNAKEKYQREHVTPYIYENPNLFKVFYLEPPEYLKREGIRLTIDTIKDFKLYLELQKHFDLINVDIRQIIDFLDKNPQIKNINSNVRQKSYREVEE,failed
4,MKIILANPRGFCAGVDRAISIVELALEIHGAPIYVRHEVVHNRFVVNGLRERGAIFVEELSEVPDGAIVIFSAHGVSQAVRQEAKDRNLKVFDATCPLVTKVHMQVARASRKGTKAILIGHKGHPEVEGTMGQYSNEDGGIFLIEKVEDIARLPMQENDNLTFMTQTTLSLDDTAETIAALKEKYPAIQGPHKNDICYATTNRQEAVRELAKLSDLVLVVGSKNSSNSNRLAELASRMGVKSQLLDEPADIQADWFNDVKTIGITAGASAPEELGQSIISRLKRFGAN,failed
5,MKIIVVGCGKIGYTIAKVLSEKKDIDVTVVDNNPNIFDKMVEPIDVIFISGNGANEKTLIEAGAKDADLIVSTTNADELNVLCCIMAERLGTKHSIARVRNPEYMLEFNKLWKDLGIDMVINPERQTAREISRILRYHAADDIVTFIGDRVELVSFKVSETPEYFVGKSVSQIFDNNMGILLAIVERENQALIPNGDLIFKESDIIWIMGRPSQIMKFFTLIKKGPKKGQEIMVIGGGKITHYLVELLNRHTTKANIKIIKKDRSKCESLYEALSSASLERRCLFIHGDGTNEELLIDEGIDTMDACVCLTDRDEENVFISLYAMRRGVKKVITKINYIHQNMAKSLGLWLGNIITPQYITAKTVIRYVDGLSGAVGRNIMTIHQIYSGDDGNVDAIEFQVNKKAKCIDTPIKKLKLKKGILIGCISRDFDIIIPSGETEIHIGDRVIIFSKNNDIRDLDDILEN,failed
6,MKIKPPLPTVTRTHARALRKELTDAERALWRCLRSNQLHDFKFRRQHPIPPYIADFCCIDAALIIELDGSQHQASSDQARTRWLQSKGWTVLRFWNNDVLFSLDAVVETIFKMVATPYPHPNPSPGGRGA,failed
7,MKILSVSYIYLLMGISSYSYANFDLGINEFNAPNELTELSELNTSNDNNAIIELINSTNSQVTIIQHNVNKTGSNKAKVKQTGYDNTAAVMQLGSNNVGLIAQNGTNNLATLKQLGFNHEGAILQEGNDNIAHLVQTGNGKQNVVNQTGDSNIAAAVNKNNGAGFSINQTGNQGIILVNGMDRFISIVN,failed
8,MKILVAFDGSDGAQKALGFAINFSKDCERMIVLYVSRDIISESGRLTYIPDTALERRDSEDEAILARARSILASSNIPFEIIKKNSDGVDVSKVIADTAKELECNMIITGTRKLRGLSKYLLGSVSAGIIAISNVPVIVVP,failed
9,MKILVCITHVPDTTSKITFADNKFNTAGVQFIIGPYDEYALSRAVELKEQSGGTVTVLNVGDAETEPTIRKALAIGADDAIRINAVPKDAGFVAAQIAAVAKSGGYDLILMGRESIDYNGGLVHGLVADALGMPCVTPIMKLDIENGVAKMTREIEGGKESVECALPFVAGCQEPIAEWKIPNMRGIMSARTKPLNVVEPVVVADDVVYGTFSLPAPKGACKMIDAANPEELLTLLRNEAKVL,failed
10,MKILWLIILVNLFLSCGNESKEKSNLGLRLRELEISGGGSESKIEVYKEFIEKEDKNILKIVNSIDKKARFFNLIGLEFFKLGQYGPAIEYFAKNLEINPNNYLSHFYIGVASYNLAKNLRVKDEVEKYIILAENSFLKSLSIRDDFKDSLFAISNMYVYDLDKQLEAKNYLNKLGDMGEDYFEFLMLRGANYYSLGDLGNAILFYDKASKKASTEEQKEGVSRIMSNLK,failed
11,MKILYIVLDGAADSPTSPRKTLEEASKPNIDSLGSHAVCGMVYTVKPGVAPQSDYATLSLLGYNPDEYYPGRGPLEAFGAGIEMRRGDIALRANFATVDPGTLRIIDRRVGRSLTSREARELASAVDGMELEDGEGTALFRATIGHRGVLVLRHRSKPLSDAISNTDPAYERRGRFSVALEKYEPFIKLSNPLVEDEAAVLAARMLNEFTLKAVEILDSHPVNLAREKRGLLKANAILSRDAGGLPEEKPPSFQERFGLRGASIVEMVVERGISRYIGLDDIRVEIEGRAREEVYREEAARAVEALETHDLVYVHLKGPDEPGHDGSFEGKIRAVEDIDKHFFAPLLDRLSSAGLEPAFVVTSDHATPWDVGAHSGDPVPLMISHQSIQGSIGKFSETVCLRGRLGTIIGGYRIIPKTLSLLAG,not failed
12,MKIMKTFALSSIASAAMLFCSSALAADGTITVDGKVTDRTCTINGGTPNFSVTMPTVSFSSLNGEGKTSARTPFTIELTNCTAGSTVATYFEPGPAVDINTSRLINQAPTASAATNVQVQLLGSNGSVIPIKAVGTTGAQDNSQWVAVNASGAASMHYYTEYYATGVSTAGSVVTNIQYTIIYQ,failed
13,MKIMTKALNRTTLGLALGLASSQLLAAGFALNEQSISGMGTGFAGRSSSADDASTVFGNPAGMSRIKREQISVGAAAVIAKTDIDNGRGTFGGSNDGDMVPVVGVPMGYYVKPIDDHWAFGLGVYVPFGLVTDYEKGFAGRYWGDKSHVQIVTFQPTVSYAFNDKVSIGFGPTINRIDGELTSAVPNRASLGTNDGKVKIKGDDTAIGFNAGILVQATDTTRLGLTYHSKVDYKLEGKTKVEGSGFGPFGGQKYDASLDISTPESVDFSITQQLDENWTVYAGSTWTRWSRLKDITVENSGVPTALASSIGTITEEQDWHDTWAHAIGASYKVNKEWTLRTGFSVDQSPTNNVNRSPRIPTGDRKIISFGAGWSPTDDLTIDVAYSYLREDETKIRDSSATKGSYSADYRNTAHGLGTSVTYRF,failed
14,MKINLDRTSSGFCIGVQGTIHVAEEKLAQSGELYCLGDVVHNEVEVKRLEALGMETIDIPAFEELRNAEVLIRAHGEPPSTYETARKNNLAITDTTCPVVAKLQRTAKMLHQLGYQVVIYGKKVHPEVIGINGQCDDEGVVIKHPDLSDPEEIAPLDLSRKTALISQTTMDVPGFYELKRNLEKLFAEHGHRNPGTQSGEWMAVRDIDITAEKTGALAMPKLVFKDTICRQVSSRNGKLRDFALANDCIVFAAGRKSSNGQVLYSICKDANPHSYFIEDVDEIRPEWFVGENGKPVESVGICGATSTPMWLLEKVANYIDKTFGDGSSNPNA,failed
15,MKINPRVIYLSIVFIFLVIMASNVAVADDLEAEKLTKVASNVALDSNPVWSPDGKEILFSRENGLYKVFSDGTGEMKLTSTKGKNFTSDYAWSPDGSKISYIENRYDTAAGPRSDLWIMNSNGEGKKQLLDTIWYRYYYIYTWFPTGSKILYAEIYEEIGGSYWEMDSDGSNKHNIGNMGIANGIALSPDASKIAICAHGPADVDYYIDVGKVGKDLTSFRYGLITHQTQSRQSQIWAPDGSKIVYYAGKNESYYEDENSEIYIVKADGTGRIQLTSDSANDNSPVFSPDGSKIVFVSDKAGNEDIWIMDADGKNKVQLTSDPASDSFPVWSPDGKKIAFWSNRGGNNNIYTLTLENEKTPVAAFCASQTSGNAPLKVSFTDKSTGTPTSWSWSFGDGKTSTLKNPLHIYSKAGKYTVSLTVKNAAGTNMKTITKYITVKTAPVKPIAAFSASPGSGKTPLKVKFTDTSTGTPTAWRWNFGDGSKSFLQNPIHKYSKTGIYTVDLTVKNAAGRNTVTKTDYITVVTKPVAEFSATPTTGKLPLTVEFTDKSTGVPTGWIWSFGDGTISREQNPKHQYLQEGKYKIILSVTNVAGSSTIKKINYIRVTTNTRPRIL,failed
